*1 amine or outer side, *2 acyl side, *3 side chain or, on linkers, in order; H or OH if unused. Bridges are numbered along the chain shown (N, C = ends). Where no end group is shown, it is not given here. [ ]: non-standard residue; d: D form. TATA = O=C(CC[*:1])N1CN(C(=O)CC[*:2])CN(C(=O)CC[*:3])C1; 1Nal = N[C@@H](Cc1cccc2ccccc12)C(=O)O; PABC = O=C(OCc1ccc(N[*:1])cc1)[*:2]; Glutaryl = O=C(CCCC(=O)[*:2])[*:1]; Cya = N[C@@H](CS(=O)(=O)O)C(=O)O; Hyp = O=C(O)[C@@H]1C[C@@H](O)CN1; dCya = N[C@H](CS(=O)(=O)O)C(=O)O; hArg = N=C(N)NCCCC[C@H](N)C(=O)O; Cit = NC(=O)NCCC[C@H](N)C(=O)O; βAla = NCCC(=O)O; Sar = CNCC(=O)O
Experiments:
[1] = molecular target: Human Nectin-4 (residues Gly32-Ser349; NCBI RefSeq: NP_112178.2) with C-terminal FLAG tag, biotinylated (human) (UniProt Q96NY8); assay: SPR (Biacore 3000), biotinylated human Nectin-4 on streptavidin CM5 chip, peptide as analyte
[2] = molecular target: Human Nectin-4 (residues Gly32-Ser349; NCBI RefSeq: NP_112178.2) with C-terminal FLAG tag, biotinylated (human) (UniProt Q96NY8); assay: SPR (Biacore 3000), biotinylated human Nectin-4 on streptavidin CM5 chip, drug conjugate as analyte
[3] = molecular target: T1, human Nectin-4 (human), Q96NY8; assay: FP competition with tracer m4; settings: remark: other sources report otherwise
T1 chain: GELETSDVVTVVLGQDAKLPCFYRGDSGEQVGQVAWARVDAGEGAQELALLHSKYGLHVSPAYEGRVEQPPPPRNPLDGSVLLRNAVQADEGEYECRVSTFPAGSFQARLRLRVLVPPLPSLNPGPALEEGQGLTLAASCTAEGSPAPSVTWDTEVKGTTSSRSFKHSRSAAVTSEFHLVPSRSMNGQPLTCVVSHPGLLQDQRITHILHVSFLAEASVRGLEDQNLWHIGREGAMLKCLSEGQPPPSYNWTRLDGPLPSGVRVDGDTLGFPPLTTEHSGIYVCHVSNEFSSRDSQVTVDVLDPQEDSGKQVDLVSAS

B1: BCY8161: Ac-(SEQ ID NO: 177) (peptide)
peptide: Ac-CP[1Nal][dD]CM[hArg][Cya]WSTP[Hyp]WC
modifications: linker 1-5-15 via TATA
**Q.** Which Kd [1] does the source give for B1 here?
**A.** 0.94 nM

B2: BCY8278: Ac-[B-Ala][Sar10]-(SEQ ID NO: 177) (peptide)
peptide: {Ac-βAla}-[Sar][Sar][Sar][Sar][Sar][Sar][Sar][Sar][Sar][Sar]CP[1Nal][dD]CM[hArg][Cya]WSTP[Hyp]WC
modifications: linker 11-15-25 via TATA
**Q.** How did the Kd [1] turn out when B2 was run?
**A.** 1.92 nM

B3: BCY8280: Ac-[B-Ala][Sar10]-(SEQ ID NO: 209) (peptide)
peptide: {Ac-βAla}-[Sar][Sar][Sar][Sar][Sar][Sar][Sar][Sar][Sar][Sar]CP[1Nal][dCya]CM[hArg][Cya]WSTP[Hyp]WC
modifications: linker 11-15-25 via TATA
**Q.** Which Kd [1] does the source give for B3 here?
**A.** 2 nM

B4: BCY8281: Ac-[B-Ala][Sar10]-(SEQ ID NO: 210) (peptide)
peptide: {Ac-βAla}-[Sar][Sar][Sar][Sar][Sar][Sar][Sar][Sar][Sar][Sar]CP[1Nal][dD]CM[Cya][Cya]WSTP[Hyp]WC
modifications: linker 11-15-25 via TATA
**Q.** Which Kd [1] does the source give for B4 here?
**A.** 6.11 nM

B5: BCY8784: MMAE-PABC-Cit-Val-Glutaryl-BCY8273 (peptide)
peptide: {MMAE-PABC-Cit-Val-Glutaryl-βAla}-[Sar][Sar][Sar][Sar][Sar][Sar][Sar][Sar][Sar][Sar]CP[1Nal][dCya]CM[hArg][Cya]WSTP[Hyp]WC
modifications: linker 11-15-25 via TATA
**Q.** How did the Kd [2] turn out when B5 was run?
**A.** 0.662 nM

B6: BCY7424 (peptide)
peptide: ACPFGCMKNWAWPIWCTNK
modifications: linker 2-6-16 via TATA
**Q.** How did the Ki [3] turn out when B6 was run?
**A.** 562 nM
